Assay [1] concerns the target T1, human VEGFR-2 immunoglobulin fusion protein (chimeric receptor protein immobilized on the biosensor chip) (human, UniProt P35968 20-764, limits assumed).
T1 construct: also called hVEGFR-2; not shown: immunoglobulin fusion part
Nature of the assay: BIAcore 2000 biosensor, receptor-Ig amine-coupled to CM5 chip, ligand injected. A general note: SPR reads the build-up and loss of mass on a sensor chip optically.

Another assay has as its target T2, human VEGFR-3-Ig (human, UniProt P35916 25-775).
T2 construct: extracellular domain; also called hVEGFR-3; soluble VEGFR-3; not shown: immunoglobulin fusion part
T2 sequence (looked up): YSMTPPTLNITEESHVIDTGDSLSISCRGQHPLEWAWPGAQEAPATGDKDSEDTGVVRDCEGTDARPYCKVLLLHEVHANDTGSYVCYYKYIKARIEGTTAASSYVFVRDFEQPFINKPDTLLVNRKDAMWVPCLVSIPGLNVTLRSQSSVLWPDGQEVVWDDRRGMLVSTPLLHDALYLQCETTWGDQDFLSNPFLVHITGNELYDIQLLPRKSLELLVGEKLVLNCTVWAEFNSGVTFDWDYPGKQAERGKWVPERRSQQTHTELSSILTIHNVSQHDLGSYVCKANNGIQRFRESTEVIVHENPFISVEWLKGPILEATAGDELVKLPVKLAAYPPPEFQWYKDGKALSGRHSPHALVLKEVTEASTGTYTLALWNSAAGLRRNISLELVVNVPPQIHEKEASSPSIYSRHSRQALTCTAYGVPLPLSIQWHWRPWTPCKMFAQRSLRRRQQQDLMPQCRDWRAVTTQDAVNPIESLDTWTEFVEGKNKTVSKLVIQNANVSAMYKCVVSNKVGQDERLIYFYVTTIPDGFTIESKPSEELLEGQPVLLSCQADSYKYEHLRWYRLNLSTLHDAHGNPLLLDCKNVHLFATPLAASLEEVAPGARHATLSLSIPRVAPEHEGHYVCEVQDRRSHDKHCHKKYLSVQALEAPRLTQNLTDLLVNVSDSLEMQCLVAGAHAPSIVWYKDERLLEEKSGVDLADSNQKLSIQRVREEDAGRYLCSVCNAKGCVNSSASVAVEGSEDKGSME
Description: BIAcore 2000 biosensor, receptor-Ig on CM5 chip, ligand injected, 1:1 Langmuir global fit.

Assay [2] addresses T1, human VEGFR-2 immunoglobulin fusion …. The description is as above.
Description: (§1) Chimeric receptor proteins were immobilized onto a carboxymethylated dextran surface. Growth factors were injected over the surface at a flow rate of 20 μl/min at the indicated concentrations.
(§2) Following immobilization, residual activated ester groups were blocked by treatment with 1 M ethanolamine hydrochloride pH 8.5 followed by washing with 10 mM diethylamine to remove non-covalently bound material. […] Samples were diluted in running buffer (10 mM HEPES pH 7.4, 150 mM NaCl, 3.4 mM EDTA, 0.005% Tween 20).

As usually defined, the Kd is the equilibrium constant for the complex coming apart. One may read the koff as the rate constant with which the complex falls apart. By kon is commonly meant a measure of how fast the partners come together.

T1 sequence (P35968 20-764 limits assumed, change not shown): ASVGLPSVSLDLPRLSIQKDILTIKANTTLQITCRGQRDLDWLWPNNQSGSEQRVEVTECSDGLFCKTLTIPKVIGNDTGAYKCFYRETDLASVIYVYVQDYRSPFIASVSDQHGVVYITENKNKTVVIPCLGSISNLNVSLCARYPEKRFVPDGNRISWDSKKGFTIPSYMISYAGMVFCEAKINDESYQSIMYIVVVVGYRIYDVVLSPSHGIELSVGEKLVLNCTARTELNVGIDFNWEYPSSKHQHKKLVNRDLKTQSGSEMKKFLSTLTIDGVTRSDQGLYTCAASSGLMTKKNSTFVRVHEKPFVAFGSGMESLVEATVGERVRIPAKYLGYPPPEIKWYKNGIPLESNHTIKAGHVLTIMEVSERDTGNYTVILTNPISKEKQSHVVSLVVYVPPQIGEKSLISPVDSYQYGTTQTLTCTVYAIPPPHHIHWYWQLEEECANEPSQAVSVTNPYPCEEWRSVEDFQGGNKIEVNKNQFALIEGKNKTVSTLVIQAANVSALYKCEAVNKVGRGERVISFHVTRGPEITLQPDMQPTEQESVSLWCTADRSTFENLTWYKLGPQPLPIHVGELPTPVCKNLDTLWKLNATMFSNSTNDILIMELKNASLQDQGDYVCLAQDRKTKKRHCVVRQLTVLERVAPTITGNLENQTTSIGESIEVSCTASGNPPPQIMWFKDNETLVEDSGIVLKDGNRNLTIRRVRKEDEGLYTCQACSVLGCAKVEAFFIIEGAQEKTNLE
Description for human VEGFR-3-Ig: as §1, §2

B1: recombinant human VEGF-C156S (Thr103 to Ile225) (ligand)
chain: TEETIKFAAAHYNTEILKSIDNEWRKTQCMPREVCIDVGKEFGVATNTFFKPPSVSVYRCGGCCNSEGLQCMNTSTSYLSKTLFEITVPLSQGPKPVTISFANHTSCRCMSKLDVYRQVHSII
notes: also called hVEGF-C156S; VEGF-C56S
Turning to B1, the binding result in assay [1] is reported as “no binding”. In the assay with human VEGFR-3-Ig, binding was put at a Kd of 115 nM, the koff is 0.0004 s⁻¹ and the kon is 3500 M⁻¹ s⁻¹.

B2: recombinant human VEGF-C (Thr103 to Leu215) (ligand, UniProt P49767 103-215, looked up)
chain: TEETIKFAAAHYNTEILKSIDNEWRKTQCMPREVCIDVGKEFGVATNTFFKPPCVSVYRCGGCCNSEGLQCMNTSTSYLSKTLFEITVPLSQGPKPVTISFANHTSCRCMSKL
notes: range 103-215; Produced and purified as in Joukov et al. 1997; also called hVEGF-C; wild type VEGF-C
In assay [2], B2 returned a Kd of 22 nM, a dissociation rate constant (koff) of 0.00123 s⁻¹ and a kon of 55000 M⁻¹ s⁻¹. In the assay with human VEGFR-3-Ig, binding was put at a Kd of 4.4 nM, the koff was found to be 0.000605 s⁻¹ and the kon was 136000 M⁻¹ s⁻¹.

The values above are taken from US20060269548A1 (published 2006).
